Test system: K4 kissing-loop RNA reporter
Assay: apparent KD of K4 kissing-loop reporter; higher = weaker reporter binding
Conditions: Eterna round: R107
Protocol: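 RNA-MaP round R107: designed RNA switches with theophylline, tryptophan, arginine or FMN aptamers are transcribed on-chip within common flanks. They are titrated with a labelled K4 kissing-loop RNA reporter in RNA-MaP buffer (100 mM Tris pH 7.5, 80 mM KCl, 4 mM MgCl2), without ligand or with the indicated ligand. Median apparent KD per design.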

[1] = input ligand: theophylline 20 uM
[2] = input ligand: tryptophan 2.4 mM
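Note: bound reporter read as fluorescence of individual clusters on recovered sequencing chips by microscopy, with normalized cluster intensities fitted with a binding model.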

| Sequence | apparent KD of K4 kissing-loop reporter (input ligand: FMN 200 uM) [nM] | apparent KD of K4 kissing-loop reporter (input ligand: arginine 13.2 mM) [nM] | apparent KD of K4 kissing-loop reporter (input ligand: none) [nM] | apparent KD of K4 kissing-loop reporter [1] [nM] | apparent KD of K4 kissing-loop reporter [2] [nM] |
| --- | --- | --- | --- | --- | --- |
| CGCAAAUCGUCGGCCGCCACUGCAUUUGAACGCUAAUUGUCUCUGCGCGGAGUGAUGUUCUGUGCCAGGACCGGGACGGAUUUCG [theeternabot_exclusion_KL_Trp_B_21] | 446 | 381 | 517 | 499 | 146 |
| CGCAAGCAGCCAGUGAUGUUGGCCGCCUUGCGAGGACCGGUACGGCCGCCACUCGAAGGCGGCUACUGGUAAUCCGUCUAACGGA [Lareus] | 84.6 | 80.9 | 86.8 | 68.4 | 89.9 |
| CGCAGUGAUGUUGCGAGUAACUACAGGGAAGGAGCGUGCUAAAGCACAGGUAGGUCGCCCAUGCAGUGAUGUUGUGUAAAAGGGU [Excluson Arginine A GF 13] | 102 | 98.6 | 106 | 118 | 90.8 |
| CGCAGUGAUGUUGCGAGUAGCUACAGGGAAGGAGCGCUCUAGUGAGCAGGUAGGUCGCCCACGCAGUGAUGUUGCGUCAUAGGGU [Exclusion Arg A GF9] | 116 | 110 | 113 | 113 | 101 |
| CGCAGUGAUGUUGCGAGUAGCUACAGGGAAGGAGCGUGCUAGAGCACAGGUAGGUCGCCCAGUGGCAGUGAUGUUGCCAACGGGU [Exclusion ARginine A GF 18] | 132 | 110 | 110 | 104 | 109 |
| CGCGCGCGCGCGCGCGCGCGCGAAAAUGAUACCAGUAUAUAAGAAUACCCUUGGCAGCAUAAGAAAGAUAUAGUGAUGUUGUAUA [SSTheophA.A] | 212 | 76.5 | 279 | 316 | 161 |
| CGCGCUGCCUGAGGAUAUAGAAACGAGUGAUGUUCGUGGACAAGAGCCAGUGAUGUUGGGUUAUUUCUAGAAGGCAGGCGAUCGU [Exclusion FMN B GF5] | 124 | 106 | 128 | 125 | 97.5 |
| CGCUGGGCGAGUGAUGUUCGCUCACGUGAUACCAGUGCCAUCCAACACCCUUGGCAGCACGCGGGCAGUGAUGUUGUCCUUGUGG [Exclusion Theophylline A GF7] | 284 | 241 | 285 | 269 | 268 |
| CGGAGUGAUGUUCCGUUAAUUCCUUAGUUACGAGGACCGGUACGGCCGCCACUCGAUUUUAGUUUUAUUUAUUGUUUGGAAAUUU [JR_SSTryptoA_Sub008] | 253 | 268 | 290 | 327 | 113 |
| CGGCGCGGCGCGGCCGCCACUGCGCCUGGGCGCUCGCCGAGUGAUGUUCGUCGGCGGUCGGGUGGCAGGACCGGGUGCCGGCCCG [BDazzled - #20 SS Tryptophan B] | 295 | 227 | 217 | 169 | 141 |
| CGGCGUGCCUUAUCCUCAUCUCUGACUCAACGAGGACCGGUACGGCCGCCACUCGGAAGAGGCAGUGAUGUUGCCUACGCCGGUG [Oronat] | 76.3 | 82.7 | 77.3 | 82.3 | 81.4 |
| CGGCUUAGUAGCGCGAGUUGACGUGCCAUCCGAGGACCGGUACGGCCGCCACUCGUGAUCUGUUAAAGUGAUGUUUUAAUGCCAU | 722 | 602 | 712 | 711 | 639 |
| CGGGUACGUCAAGGAUAUAGGCAUGACGUAGUGCAGUGAUGUUGCUCGAGUCUCUUCAACUGAGGACUAGAAGGUGAUCGUAACA [theeternabot_sameState_KL_FMN_B_15] | 491 | 351 | 631 | 644 | 344 |
| CGUAGCAGACGAAGGAGCGGCUACCUGAAUCAGGGUGAUGCCUGAGUGAUGUUCAGGUAAAGCCAGGUAGGUCGCGUCUGCUACG [Arg B Ex t9a] | 201 | 203 | 232 | 235 | 210 |
| CGUCACACUUGAUGGUUAUCCAAUGAUGAUACCAGCCGUCGAGAUGGCCCUUGGCAGCAUGUGGUACAGUGAUGUUGUACAUUGG [theeternabot_sameState_KL_Theo_A_30] | 392 | 244 | 383 | 352 | 258 |
| CGUCUAUAGCAGGAUACCAGUACCCAUUAUGUACGUUUAUAGUAGAGUGAUGUUCUAAAGUACCCUUGGCAGCUUCCUGUGACCC [#24 K4 Theophylline B Exclusion] | 179 | 189 | 189 | 206 | 163 |
| CGUGAAGACCAGAGGUGAUGUAUAGUAUCGCGAGGACCGGUACGGCCGCCACUCGUGAAGAGAAAGGAGUGAUGUUCCGUAAUGG [C12] | 246 | 239 | 312 | 326 | 107 |
| CGUGAUGUAUGGCGGUUUGUCACUUAGGAUCAGGAUAUAUAAACAAAUAGAAGGGAUGGCGGAGUGAUGUUCCGCCGGCCGCCAU [FMN A Exl V8] | 173 | 128 | 161 | 150 | 148 |
| CGUUCCUCUGUCGAUACCAGCUUCAGUUGGCGGCCAGUGAUGUUGGUAUCGCCGAUGCCAAGCCCUUGGCAGCGACAGGAGACCC [Usleanza] | 155 | 165 | 211 | 95 | 163 |
| CGUUUAUAGCAGGAUACCAGUACCCAUUAUGUACGUUUAUAGUAGAGUGAUGUUCUAAAGUACCCUUGGCAGCUUCCUGUGACCC [ExTheophylB.Aa] | 166 | 168 | 181 | 194 | 145 |
| CUAUGGAAACAUAGUGAUCGGGAAACCGAUACCAGUAUGGAAACAUACCCUUGGCAGCGGAAUGAUCAAACGGAGUGAUGUUCCG [Theophylline A K4 21] | 459 | 318 | 648 | 278 | 288 |
| CUCGAGUGAUGUUCCUUUAUUUAUACAGAUACCAGUGAAUUUUAACACCCUUGGCAGCUGGUUGUAUCUUUGUUUUUUACACAUG [JR_Nu_ExcTheophyA_Sub025] | 204 | 128 | 205 | 270 | 155 |

| Sequence | apparent KD of K4 kissing-loop reporter (input ligand: FMN 200 uM) [nM] | apparent KD of K4 kissing-loop reporter (input ligand: arginine 13.2 mM) [nM] | apparent KD of K4 kissing-loop reporter (input ligand: none) [nM] | apparent KD of K4 kissing-loop reporter [1] [nM] | apparent KD of K4 kissing-loop reporter [2] [nM] |
| --- | --- | --- | --- | --- | --- |
| CUGACGCUGAUACGGUGGCCGCUGGUCGUGCGAGGACCGGUACGGCCGCCACUCGCAUGAGUGAUGUUCAUGUGUCGUCGUCGUC [#07 K4 Tryptophan A Exclusion] | 122 | 108 | 113 | 105 | 123 |
| CUGGGUUGACGAAAAGUCAACAAAAGAGAAGGAGCGCACGAAAGUGCAGGUAGGUCGCUCAUCCAGUGAUGUUGGAUCAUCCAGA [#SwitchBubble 16 #K4Late] | 345 | 611 | 316 | 646 | 273 |
| CUUAAGAUAUGAGUGAUGUUUAUGUCCGAAGGAGCGUGCGAAAGUACAGGUAGGUCGCGGAUGUGAGUGAUGUUCAUGUAAGCGA [KL-XArg-A13 #analogue] | 132 | 87.9 | 114 | 109 | 106 |
| CUUCAGAUCUGAAGGAGCGCGUUACCAGAAUGCAUCAUAGAGCAGUGAUGUUGCUCUGGAUCGCAGGUAGGUCGCAGAUCUGACG [Arg B Ex t7b] | 196 | 189 | 189 | 156 | 195 |
| CUUGAUGGAAACAUCGAGUAUUUCACUGAUACCAGUAUCGAUAGAUACCCUUGGCAGCAGGAUCAGUGUUUACGAGUGAUGUUCG [Ex Theophylline A K4 9] | 444 | 408 | 451 | 380 | 376 |
| CUUGGAAAGACGGCCGCCACUGGCCAGUGAUGUUGGCCCACCAGGUAAGCCAAGAAGCUUGACGUCAGGACCGGGUCCUAGGAAU [Exclusion TRyptophan B GF 23] | 363 | 449 | 410 | 314 | 359 |
| CUUGGGCUUGCGGCCGCCACUCAAACAUCAUUAAGGAUGGUCCACGGGCAAGUGAUGUUUAUCCGGAGGACCGGGCAUAGCGACA [theeternabot_exclusion_KL_Trp_B_23] | 337 | 270 | 315 | 315 | 342 |
| GACUGGUUAACAGAUACCAGCCACAAGCGUUGAGGCGGCGGUAAAGUGAUGUUUUAUAAAGGCCCUUGGCAGCUGACUAGUUCGU [theeternabot_exclusion_KL_Theo_B_28] | 371 | 387 | 383 | 381 | 324 |
| GAGAUAGAGGCGGCCGCCACUAGUGAUGUUAGUGAUGUUAGAAAGAGAAUAGAACAGGGAUUAGAUAGGACCGGGCCAGAUGGAG [vvhmullin] | 64.4 | 46 | 60.4 | 62.2 | 60.1 |
| GAGAUAGAGGCGGCCGCCACUAGUGAUGUUAGUGAUGUUAGAUAGAGAAUAGAACAGAGGUAGGAUAGGACCGGGCCAGAUAGAG [whbob_SS_Tryp_B_w31] | 90.6 | 65.3 | 62.4 | 77 | 83.7 |
| GAGAUAGCGACGGCCGCCACUAGUGAUGUUAGUGCUGGUAGAUAGAUACUGGAACAGAAAUGACGUAGGACCGGGUCAGAUAGAG [#01 K4 Tryptophan B Exclusion] | 264 | 233 | 292 | 334 | 247 |
| GAGCGGUGGAGGUUACCGCUAUUCUGAGAAGGAGCGCAGAAGACUGCAGGUAGGUCGCUUAGAGCUUGCAGUGAUGUUGCAAGUU [KL-SSArg-A13] | 173 | 122 | 141 | 160 | 127 |
| GAGGUACAGCUGGCCGUCGAAUUGUCCGAUACCAGACACUCUCUAGUCCCUUGGCAGCGGUGGUAAGUGAUGUUUACAGGCGCCG [theeternabot_exclusion_KL_Theo_A_3] | 152 | 104 | 147 | 122 | 126 |
| GCAACAUUGGUAGGAUAUCAUUCUGAGUGAUGUUCAGGGUUCAGCUAACGAAAGUUAGUUGUACCAUGAGAAGGACUAAUGUUGC [Omei KL FMN B SS A v3] | 337 | 766 | 1220 | 1060 | 915 |
| GCAAGAGAGUGAUGUUGUUUUGAUCAGGGCAAGGAUAUGCUAUAUAGCAGAAGGUGCCGUUUUCUGCUGGCUUUCGUUACCCAUU [theeternabot_exclusion_KL_FMN_A_6] | 750 | 605 | 865 | 990 | 708 |
| GCACGUACCCGAAGGAGCGUGCAAGAAUCGUAGUGAUGUUACGGAGAGUGUCACGCCGUCGCACAGGUAGGUCGCGGGUACGUGC | 78.3 | 80.3 | 67.5 | 63.2 | 61.4 |
| GCAGUGAUGUUGCACGAGUAGGGUAGAGUGCGAGGACCGGUACGGCCGCCACUCGUAUGGAACUCGCUAAUUUAUGGAAUGGUGA [whbob_SS_tryp_A] | 791 | 828 | 1020 | 920 | 575 |
| GCAGUGAUGUUGCGGAUGUACAGUGGCGUGCGAGGACCGGUACGGCCGCCACUCGUACAGAGCGAGCUAAUACAUCGAUAGGUGA [whbob_SS_Tryp_A_m5] | 230 | 212 | 236 | 288 | 241 |
| GCAUCCAUGGCAGGAUAUAGGUUCAUGGAGUGAUGUUCCAUAACCCGAGUGAUGUUCGUUAUCCACCUAGAAGGGCCAUGGAUGC | 208 | 173 | 206 | 196 | 180 |
| GCCCGAAAGGGCCGAAGUGUUUGCGGCGAUCGAGGACCGGUACGGCCGCCACUCGUCGAGGCGUUCAGUGAUGUUGAAAGCAUGA | 250 | 257 | 215 | 266 | 480 |
| GCCCGAAAGGGCCGAUGUGUUUGCGGCGAUCGAGGACCGGUACGGCCGCCACUCGUCGAGGCGUUCAGUGAUGUUGAAAGCAUUA | 334 | 279 | 352 | 354 | 626 |

Reference: the supplement of paper PMC9170038
